This note sets out measurements from patent publication US20210388110A1 (published 2021).

The target of this assay is T1, soluble human GPC3 (human, UniProt P51654 25-563, limits assumed).
T1 construct: soluble human GPC3 as analyte; also called glypican 3
The assay can be described thus: SPR (Biacore), soluble human GPC3.

By Kd is commonly meant the concentration at which binding is half-saturated.

T1 sequence (P51654 other isoform, or with tags, fused parts or gaps limits assumed, form in doubt): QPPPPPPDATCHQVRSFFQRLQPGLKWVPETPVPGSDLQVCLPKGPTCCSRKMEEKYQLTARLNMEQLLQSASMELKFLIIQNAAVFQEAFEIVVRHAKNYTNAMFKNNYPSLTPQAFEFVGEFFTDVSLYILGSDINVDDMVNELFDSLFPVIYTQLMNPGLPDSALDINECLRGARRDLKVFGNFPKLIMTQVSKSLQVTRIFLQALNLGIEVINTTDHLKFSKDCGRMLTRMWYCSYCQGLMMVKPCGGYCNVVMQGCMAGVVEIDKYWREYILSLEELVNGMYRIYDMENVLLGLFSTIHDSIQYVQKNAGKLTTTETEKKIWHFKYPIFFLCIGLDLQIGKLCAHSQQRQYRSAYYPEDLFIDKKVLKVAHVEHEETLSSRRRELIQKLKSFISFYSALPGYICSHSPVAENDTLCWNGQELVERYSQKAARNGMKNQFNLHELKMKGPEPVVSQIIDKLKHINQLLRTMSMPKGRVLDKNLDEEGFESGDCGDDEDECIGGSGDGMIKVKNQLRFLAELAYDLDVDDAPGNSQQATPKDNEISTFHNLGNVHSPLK

B1: GCH035-G1dh/none-Hi-Kn010G3/L0000-k0 (antibody, human IgG1, kappa)
heavy: not shown
chain: EPKSSDKTHTCPPCPAPELLGGPSVFLFPPKPKDTLMISRTPEVTCVVVDVSHEDPEVKFNWYVDGVEVHNAKTKPREEQYNSTYRVVSVLTVLHQDWLNGKEYKCKVSNKALPAPIEKTISKAKGQPREPQVCTLPPSRDELTKNQVSLWCLVKGFYPSDIAVEWESNGQPENNYKTTPPVLDSDGSFFLYSKLTVDKSRWQQGNVFSCSVMHEALHNRYTQKSLSLSP
light: DIVMTQSPLSLPVTPGEPASISCRSSQSLVHSNRNTYLHWYQQKPGQAPRLLIYKVSNRFSGVPDRFSGSGSGTDFTLKISRVEAEDVGVYYCGQGTQVPYTFGQGTKLEIKRTVAAPSVFIFPPSDEQLKSGTASVVCLLNNFYPREAKVQWKVDNALQSGNSQESVTEQDSKDSTYSLSSTLTLSKADYEKHKVYACEVTHQGLSSPVTKSFNRGEC
notes: single-arm (one Fab)
For B1, the Kd was determined as 4.94 nM.

B2: GCH054-G1dh/none-Hi-Kn010G3/L0212-k0 (antibody, human IgG1, kappa)
heavy: not shown
chain: EPKSSDKTHTCPPCPAPELLGGPSVFLFPPKPKDTLMISRTPEVTCVVVDVSHEDPEVKFNWYVDGVEVHNAKTKPREEQYNSTYRVVSVLTVLHQDWLNGKEYKCKVSNKALPAPIEKTISKAKGQPREPQVCTLPPSRDELTKNQVSLWCLVKGFYPSDIAVEWESNGQPENNYKTTPPVLDSDGSFFLYSKLTVDKSRWQQGNVFSCSVMHEALHNRYTQKSLSLSP
light: DIVMTQSPLSLPVTPGEPASISCRPSQSPVHSNRNTYLHWYQQKPGQAPRLLIYKVSNRFSGVPDRFSGSGSGTDFTLKISRVEAEDVGVYYCYQGTQVPYTFGQGTKLEIKRTVAAPSVFIFPPSDEQLKSGTASVVCLLNNFYPREAKVQWKVDNALQSGNSQESVTEQDSKDSTYSLSSTLTLSKADYEKHKVYACEVTHQGLSSPVTKSFNRGEC
notes: single-arm (one Fab)
B2: binding was characterised by a dissociation constant (Kd) of 0.517 nM.

B3: GCH042-G1dh/none-Hi-Kn010G3/L0000-k0 (antibody, human IgG1, kappa)
heavy: not shown
chain: EPKSSDKTHTCPPCPAPELLGGPSVFLFPPKPKDTLMISRTPEVTCVVVDVSHEDPEVKFNWYVDGVEVHNAKTKPREEQYNSTYRVVSVLTVLHQDWLNGKEYKCKVSNKALPAPIEKTISKAKGQPREPQVCTLPPSRDELTKNQVSLWCLVKGFYPSDIAVEWESNGQPENNYKTTPPVLDSDGSFFLYSKLTVDKSRWQQGNVFSCSVMHEALHNRYTQKSLSLSP
light: DIVMTQSPLSLPVTPGEPASISCRSSQSLVHSNRNTYLHWYQQKPGQAPRLLIYKVSNRFSGVPDRFSGSGSGTDFTLKISRVEAEDVGVYYCGQGTQVPYTFGQGTKLEIKRTVAAPSVFIFPPSDEQLKSGTASVVCLLNNFYPREAKVQWKVDNALQSGNSQESVTEQDSKDSTYSLSSTLTLSKADYEKHKVYACEVTHQGLSSPVTKSFNRGEC
notes: single-arm (one Fab)
Take B3: the Kd was 4.89 nM.

B4: GCH054-G1dh/none-Hi-Kn010G3/L0201-k0 (antibody, human IgG1, kappa)
heavy: not shown
chain: EPKSSDKTHTCPPCPAPELLGGPSVFLFPPKPKDTLMISRTPEVTCVVVDVSHEDPEVKFNWYVDGVEVHNAKTKPREEQYNSTYRVVSVLTVLHQDWLNGKEYKCKVSNKALPAPIEKTISKAKGQPREPQVCTLPPSRDELTKNQVSLWCLVKGFYPSDIAVEWESNGQPENNYKTTPPVLDSDGSFFLYSKLTVDKSRWQQGNVFSCSVMHEALHNRYTQKSLSLSP
light: DIVMTQSPLSLPVTPGEPASISCRSSQPPVHSNRNTYLHWYQQKPGQAPRLLIYKVSNRFSGVPDRFSGSGSGTDFTLKISRVEAEDVGVYYCGQGTQVPYTFGQGTKLEIKRTVAAPSVFIFPPSDEQLKSGTASVVCLLNNFYPREAKVQWKVDNALQSGNSQESVTEQDSKDSTYSLSSTLTLSKADYEKHKVYACEVTHQGLSSPVTKSFNRGEC
notes: single-arm (one Fab)
As to B4, the Kd stood at 1.08 nM.

B5: GCH043-G1dh/none-Hi-Kn010G3/L0000-k0 (antibody, human IgG1, kappa)
heavy: not shown
chain: EPKSSDKTHTCPPCPAPELLGGPSVFLFPPKPKDTLMISRTPEVTCVVVDVSHEDPEVKFNWYVDGVEVHNAKTKPREEQYNSTYRVVSVLTVLHQDWLNGKEYKCKVSNKALPAPIEKTISKAKGQPREPQVCTLPPSRDELTKNQVSLWCLVKGFYPSDIAVEWESNGQPENNYKTTPPVLDSDGSFFLYSKLTVDKSRWQQGNVFSCSVMHEALHNRYTQKSLSLSP
light: DIVMTQSPLSLPVTPGEPASISCRSSQSLVHSNRNTYLHWYQQKPGQAPRLLIYKVSNRFSGVPDRFSGSGSGTDFTLKISRVEAEDVGVYYCGQGTQVPYTFGQGTKLEIKRTVAAPSVFIFPPSDEQLKSGTASVVCLLNNFYPREAKVQWKVDNALQSGNSQESVTEQDSKDSTYSLSSTLTLSKADYEKHKVYACEVTHQGLSSPVTKSFNRGEC
notes: single-arm (one Fab)
The molecule B5 registered a Kd of 3.74 nM.

B6: GCH054-G1dh/none-Hi-Kn010G3/L0215-k0 (antibody, human IgG1, kappa)
heavy: not shown
chain: EPKSSDKTHTCPPCPAPELLGGPSVFLFPPKPKDTLMISRTPEVTCVVVDVSHEDPEVKFNWYVDGVEVHNAKTKPREEQYNSTYRVVSVLTVLHQDWLNGKEYKCKVSNKALPAPIEKTISKAKGQPREPQVCTLPPSRDELTKNQVSLWCLVKGFYPSDIAVEWESNGQPENNYKTTPPVLDSDGSFFLYSKLTVDKSRWQQGNVFSCSVMHEALHNRYTQKSLSLSP
light: DIVMTQSPLSLPVTPGEPASISCRSSQPPVHSNRNTYIHWYQQKPGQAPRLLIYKVSNRFSGVPDRFSGSGSGTDFTLKISRVEAEDVGVYYCGQGTQVPYTFGQGTKLEIKRTVAAPSVFIFPPSDEQLKSGTASVVCLLNNFYPREAKVQWKVDNALQSGNSQESVTEQDSKDSTYSLSSTLTLSKADYEKHKVYACEVTHQGLSSPVTKSFNRGEC
notes: single-arm (one Fab)
The molecule B6 registered a Kd of 1.62 nM.

B7: GCH053-G1dh/none-Hi-Kn010G3/L0000-k0 (antibody, human IgG1, kappa)
heavy: not shown
chain: EPKSSDKTHTCPPCPAPELLGGPSVFLFPPKPKDTLMISRTPEVTCVVVDVSHEDPEVKFNWYVDGVEVHNAKTKPREEQYNSTYRVVSVLTVLHQDWLNGKEYKCKVSNKALPAPIEKTISKAKGQPREPQVCTLPPSRDELTKNQVSLWCLVKGFYPSDIAVEWESNGQPENNYKTTPPVLDSDGSFFLYSKLTVDKSRWQQGNVFSCSVMHEALHNRYTQKSLSLSP
light: DIVMTQSPLSLPVTPGEPASISCRSSQSLVHSNRNTYLHWYQQKPGQAPRLLIYKVSNRFSGVPDRFSGSGSGTDFTLKISRVEAEDVGVYYCGQGTQVPYTFGQGTKLEIKRTVAAPSVFIFPPSDEQLKSGTASVVCLLNNFYPREAKVQWKVDNALQSGNSQESVTEQDSKDSTYSLSSTLTLSKADYEKHKVYACEVTHQGLSSPVTKSFNRGEC
notes: single-arm (one Fab)
For B7, the equilibrium dissociation constant (Kd) was 4.05 nM.

B8: GCH054-G1dh/none-Hi-Kn010G3/L0203-k0 (antibody, human IgG1, kappa)
heavy: not shown
chain: EPKSSDKTHTCPPCPAPELLGGPSVFLFPPKPKDTLMISRTPEVTCVVVDVSHEDPEVKFNWYVDGVEVHNAKTKPREEQYNSTYRVVSVLTVLHQDWLNGKEYKCKVSNKALPAPIEKTISKAKGQPREPQVCTLPPSRDELTKNQVSLWCLVKGFYPSDIAVEWESNGQPENNYKTTPPVLDSDGSFFLYSKLTVDKSRWQQGNVFSCSVMHEALHNRYTQKSLSLSP
light: DIVMTQSPLSLPVTPGEPASISCRSSQSPVHSNRNTYIHWYQQKPGQAPRLLIYKVSNRFSGVPDRFSGSGSGTDFTLKISRVEAEDVGVYYCGQGTQVPYTFGQGTKLEIKRTVAAPSVFIFPPSDEQLKSGTASVVCLLNNFYPREAKVQWKVDNALQSGNSQESVTEQDSKDSTYSLSSTLTLSKADYEKHKVYACEVTHQGLSSPVTKSFNRGEC
notes: single-arm (one Fab)
B8 showed a Kd of 2.48 nM.

B9: GCH040-G1dh/none-Hi-Kn010G3/L0000-k0 (antibody, human IgG1, kappa)
heavy: not shown
chain: EPKSSDKTHTCPPCPAPELLGGPSVFLFPPKPKDTLMISRTPEVTCVVVDVSHEDPEVKFNWYVDGVEVHNAKTKPREEQYNSTYRVVSVLTVLHQDWLNGKEYKCKVSNKALPAPIEKTISKAKGQPREPQVCTLPPSRDELTKNQVSLWCLVKGFYPSDIAVEWESNGQPENNYKTTPPVLDSDGSFFLYSKLTVDKSRWQQGNVFSCSVMHEALHNRYTQKSLSLSP
light: DIVMTQSPLSLPVTPGEPASISCRSSQSLVHSNRNTYLHWYQQKPGQAPRLLIYKVSNRFSGVPDRFSGSGSGTDFTLKISRVEAEDVGVYYCGQGTQVPYTFGQGTKLEIKRTVAAPSVFIFPPSDEQLKSGTASVVCLLNNFYPREAKVQWKVDNALQSGNSQESVTEQDSKDSTYSLSSTLTLSKADYEKHKVYACEVTHQGLSSPVTKSFNRGEC
notes: single-arm (one Fab)
The molecule B9 came in with a Kd of 4.8 nM.

B10: GCH045-G1dh/none-Hi-Kn010G3/L0000-k0 (antibody, human IgG1, kappa)
heavy: not shown
chain: EPKSSDKTHTCPPCPAPELLGGPSVFLFPPKPKDTLMISRTPEVTCVVVDVSHEDPEVKFNWYVDGVEVHNAKTKPREEQYNSTYRVVSVLTVLHQDWLNGKEYKCKVSNKALPAPIEKTISKAKGQPREPQVCTLPPSRDELTKNQVSLWCLVKGFYPSDIAVEWESNGQPENNYKTTPPVLDSDGSFFLYSKLTVDKSRWQQGNVFSCSVMHEALHNRYTQKSLSLSP
light: DIVMTQSPLSLPVTPGEPASISCRSSQSLVHSNRNTYLHWYQQKPGQAPRLLIYKVSNRFSGVPDRFSGSGSGTDFTLKISRVEAEDVGVYYCGQGTQVPYTFGQGTKLEIKRTVAAPSVFIFPPSDEQLKSGTASVVCLLNNFYPREAKVQWKVDNALQSGNSQESVTEQDSKDSTYSLSSTLTLSKADYEKHKVYACEVTHQGLSSPVTKSFNRGEC
notes: single-arm (one Fab)
Regarding B10, the dissociation constant Kd was 4.63 nM.

B11: GCH039-G1dh/none-Hi-Kn010G3/L0000-k0 (antibody, human IgG1, kappa)
heavy: not shown
chain: EPKSSDKTHTCPPCPAPELLGGPSVFLFPPKPKDTLMISRTPEVTCVVVDVSHEDPEVKFNWYVDGVEVHNAKTKPREEQYNSTYRVVSVLTVLHQDWLNGKEYKCKVSNKALPAPIEKTISKAKGQPREPQVCTLPPSRDELTKNQVSLWCLVKGFYPSDIAVEWESNGQPENNYKTTPPVLDSDGSFFLYSKLTVDKSRWQQGNVFSCSVMHEALHNRYTQKSLSLSP
light: DIVMTQSPLSLPVTPGEPASISCRSSQSLVHSNRNTYLHWYQQKPGQAPRLLIYKVSNRFSGVPDRFSGSGSGTDFTLKISRVEAEDVGVYYCGQGTQVPYTFGQGTKLEIKRTVAAPSVFIFPPSDEQLKSGTASVVCLLNNFYPREAKVQWKVDNALQSGNSQESVTEQDSKDSTYSLSSTLTLSKADYEKHKVYACEVTHQGLSSPVTKSFNRGEC
notes: single-arm (one Fab)
In turn, B11 came in with a Kd of 4.95 nM.

B12: GCH054-G1dh/none-Hi-Kn010G3/L0200-k0 (antibody, human IgG1, kappa)
heavy: not shown
chain: EPKSSDKTHTCPPCPAPELLGGPSVFLFPPKPKDTLMISRTPEVTCVVVDVSHEDPEVKFNWYVDGVEVHNAKTKPREEQYNSTYRVVSVLTVLHQDWLNGKEYKCKVSNKALPAPIEKTISKAKGQPREPQVCTLPPSRDELTKNQVSLWCLVKGFYPSDIAVEWESNGQPENNYKTTPPVLDSDGSFFLYSKLTVDKSRWQQGNVFSCSVMHEALHNRYTQKSLSLSP
light: DIVMTQSPLSLPVTPGEPASISCRPSQSPVHSNRNTYLHWYQQKPGQAPRLLIYKVSNRFSGVPDRFSGSGSGTDFTLKISRVEAEDVGVYYCGQGTQVPYTFGQGTKLEIKRTVAAPSVFIFPPSDEQLKSGTASVVCLLNNFYPREAKVQWKVDNALQSGNSQESVTEQDSKDSTYSLSSTLTLSKADYEKHKVYACEVTHQGLSSPVTKSFNRGEC
notes: single-arm (one Fab)
As for B12, the affinity, expressed as Kd, was 1.18 nM.
